Legend:
Experiment in all cases: BLI
2B12 Fab = conditions: 2 uM Fab; RT; weak binder; printed as second 3B12 in Table 4, 2B12 in text
2C11 Fab = conditions: 2 uM Fab; RT; weak binder
3B11 Fab = conditions: 2 uM Fab; RT; described as weak binding
3B12 Fab = conditions: 2 uM Fab; RT; described as weak binding
3C8 Fab = conditions: 2 uM Fab; RT; described as weak binding

## CATTTCCCGTAAATC (double strand) [CS3D (cyclic STAT3 decoy)]
2B12 Fab
  koff: 0.37 s⁻¹
2C11 Fab
  koff: 0.419 s⁻¹
3B11 Fab
  koff: 0.205 s⁻¹
3B12 Fab
  koff: 0.0764 s⁻¹
3C8 Fab
  koff: 0.277 s⁻¹

— US20260234290
